# The DeepSol protein solubility set
# Assay: soluble on expression in E. coli; label from the status in PepcDB or PDB records
row,Sequence,soluble on expression in E. coli
1,GPGSMQAIITTAKSFAGDEKRPRDVKAAAAAPVLDWATMYTRRPAGTSTLFTLEAMVAKRMELLAWIDQLMNSPNVRSFSVVLDEIGARLPIERRKHVTQHAADHVVVLGRDDSPAADDADSFRTPRLSVSRSSGSAALNAFVFEGDEDLISHLLARFAFCMSEQWRKWFVKTEEALLRARLKLQMAKYETDFLPSLMRDNGLPCDPLSDEQWQDPLLQEYIVYFAVFQGKQQSRSREDYFSVPMTLATRLIKTRSVLCLKGHAILHRDQAQEVFVTVFRSKLNKGLHEAYLARMRLTSNEEDEERETVMRMLDAFLEYFVSDPTSAIQEAASGAVSAGEVRRIAQTHFPLCMRQVDEHLRREGHLKHHGRFTYGLFLKAIGLSLQDSMTLFSSLMTVKGVAGNSEAFAKTAYGYNIRHNYGMEGKKTSYSSMSCATLLALPPVVDRFDCHGCPFRFKDEGAFRSMLLKEQLNPLGKEHPPLRPSASDIEEIVQDCKGQHYTRACYKYFVATHPGVKRDTLFRSPFEYYTLSREVGERPEEILSEQTTPARRLMTGDSLKRSMFTPTLKEDVIRERKSPP,not soluble
2,MGSDKIHHHHHHMVTFSIRIISSDRIFLVAEVKALERVYVIGHKNPDTDSVCSAIGYAHFKNNVEKGKTFIPARSGDLTNESLFVLKYFGMNPPLHIETLEPTVEDLELKNPIFVTPDTSAYDVAMLMESRGIKNVPVVSKEKMIGVVTESNIARVYVRRLKIEPLVIHPVPFDQLVRILKAEVVCDYMKEKTVSGKVHIAVDALHVLLGKIEIGDVVIVGDNEPAQIALLEKGAKLMIVVNNAPVSNRVLEIAKEKNAAVLRVKFDAFSAAKLINLSLPVTLVMSKKFPTVTKKDTLEEVKEIVFTSKIRAAFVEDEKGRLCGVITRTDLLKDVRKKVILVDHNEITQAPEGVEKAEILEIIDHHRLGGLSTLNPVFFYNEPVGSTSTIVAEFFLKNGVKMEREIAGILLSGIVSDTLFFKLSTTTEKDRKMANFLADVAKLDLEKFAKKLLKEGMKIPEDVDPAELLKRDVKVYEMGEESFAVSQIMTSDFSTLLKEKERFMNTLKTLKGEFGVKHFFVLFTNPVEEASLLMMDGDQKLVEKAFNAEKKDGLFLLKGVMSRKKDFVPKIGEVLRRER,not soluble
3,MRWVRFFHEVGLEDVPLVGGKNASLGEMIRELSPLGVRVPEGFATTSEAYWHFLEHNGLKEAIARELGELDPEDPKALQRVSRRLRNLILKGEYPQDLREEILEAYRRLSEEAVEEEIPVAVRSSATAEDLLTASFAGQQESFLYVQGEADLLLHVKRAMASLFTARAISYRAHMGFDHLKVALSVGVQRMVRADDAASGVIFTLDPDTGHRGFVYLTAIYGLGENIVQGRVIPDGYYVHKETFREGFRAVVYRRLGAKELTLAFDPREGRLKNRPTPLYLRNRFALRDEEVLLLADWAMKIEDHYSKKRGSPTPMDIEWAKDGPTGELFVLQARPETVHSQKTPVLRVFRLLKRGEVLAEGLAVGEAIAMGRARVLKDPKEMDRFQEGEVLVTETTNPDWEPIMKKAAAIVTERGGRTSHAAIVARELGVPAVVGAVGATRSVPEGEEVTVSCAEGERGVVYRGRLPFEVEEIRPETLPRTRTRILVNVGTPEEALRTSLLPTDGVGLLRMEFVFASHVRVHPLALTRFETLPKEVRRQVEEVTEAYPDKRAYFVETLSQGIGLIAAAFYPRPVLLRFSDFKTNEYARLLGGHLFEPKEENPMLGWRGASRYYHPDYKEGFLLEVAAVRRVREEMGLKNLMVMVPFCRTPEEGEKVLEVMAEGGLRREEGGLEVHVMAEIPSNVLEAEAFAELFDGFSIGSNDLTQLALGLDRDSERVAHLFDERRETVKRLAAMLIEKAHAKGKKVGICGQAPSDYPEFAAFLVERGIDSLSLNPDALLRTVREVAEVERRLGIG,soluble
4,MKFFDREREINEILHILNREPDDIYFIYGPLNSGKTALIKHIIENKLSDDYKVFYINFRTYLISEKREFIEAIFTTKKDDFFEKIKDKDEVLNLITKGVRILTGIPIPEVEFDKLFEEKINDAFQYLNSLLLEVKKSGKKPILIFDELQMIKDVVLNTENQRFSAFPSLRFGNGQKYLLKELFQFLVSLTKEQHLCHVFCLSSDSLFIEYVYSTGELEGRAKYLLVDDFDKETALKFMDFLAVENNINLTNEDKELIYSYVGGKPKDIKYVVEESKFKDLREILEFMLKDAVQKLDMFLDMLNYSKPKVDVGDEVIEIKKDNVIEALKLFKDEYEVSKKHIPVPVYTYLIKRNILFLNPIEGILKPQSYLVWNAIKRLL,not soluble
